The results in this text go back to patent publication US20150045310A1 (published 2015).

Where no end group is shown, it is not given here. eCPX = enhanced circularly permuted OmpX display scaffold; linker = not defined here

For assay [1], the target named is T1, Mcl-1 (biotinylated pro-survival Bcl-2 family protein) (UniProt Q07820 171-327, biotinylated (co-expressed E. coli biotin ligase BirA)).
T1 chain: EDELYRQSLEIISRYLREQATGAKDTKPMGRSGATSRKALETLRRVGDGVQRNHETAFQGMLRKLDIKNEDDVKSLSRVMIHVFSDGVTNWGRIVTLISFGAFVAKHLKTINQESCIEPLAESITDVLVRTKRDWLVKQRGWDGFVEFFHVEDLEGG
The assay can be described thus: cell surface display FACS titration; apparent Kd.

In assay [2] the target is T2, A1 (biotinylated pro-survival Bcl-2 family protein) (UniProt Q16548 1-152, biotinylated (co-expressed E. coli biotin ligase BirA)).
T2 chain: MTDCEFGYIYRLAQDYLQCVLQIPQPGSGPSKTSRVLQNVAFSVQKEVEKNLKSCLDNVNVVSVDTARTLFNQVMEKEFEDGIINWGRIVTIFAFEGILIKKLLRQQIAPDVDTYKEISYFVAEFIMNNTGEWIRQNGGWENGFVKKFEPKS
The assay can be described thus: flow cytometry, bacterial surface display (eCPX); apparent Kd; FIG. 7AH. A general note: In flow cytometry, cells or beads pass a laser one at a time.

Assay [3] deals with Bcl-2 (biotinylated pro-survival Bcl-2 family protein) (UniProt P10415 1-217, biotinylated (co-expressed E. coli biotin ligase BirA)). The assay can be described thus: cell surface display FACS titration; apparent Kd.
Chain of Bcl-2 (biotinylated pro-survival Bcl-2 family protein) (P10415 1-217): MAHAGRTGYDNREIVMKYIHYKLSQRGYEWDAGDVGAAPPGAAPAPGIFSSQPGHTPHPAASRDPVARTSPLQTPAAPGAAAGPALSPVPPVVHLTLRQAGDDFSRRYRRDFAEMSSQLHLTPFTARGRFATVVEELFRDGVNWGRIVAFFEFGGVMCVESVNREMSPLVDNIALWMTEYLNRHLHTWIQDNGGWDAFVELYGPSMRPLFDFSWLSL

With WIAQLLRRIGDEFN [Bim BH3 14-mer E151L displayed on eCPX], in assay [1], the Kd was 17.8 nM. WLAQLLRRYGDEFN (also: displayed as fusion to eCPX scaffold (letters not given here)) [Bim BH3 14-mer variant X2-8 displayed on eCPX]: the Kd in assay [2] came out at 5.8 nM.

As for WIAQTLRRIGDEFN [Bim BH3 14-mer E151T displayed on eCPX], in assay [1], the Kd was determined as 33.2 nM.

B1: Bim BH3 14-mer variant M2-2 displayed on eCPX (peptide)
peptide: WVAQLLRRIGDEVN-{linker-eCPX}
modifications: reading uncertain; also: printed as Trp-Val-Ala-Gln-Leu-Leu-Arg-Arg-Ile-Gly-Asp-Glu-Val-Asn
As to B1, the Kd in assay [3] was above 10000 nM.
